assay: soluble on expression in E. coli; label from the status in PepcDB or PDB records

Sequence	soluble on expression in E. coli
MSDTLRPYKNLFPGIGQRVMIDTSSVVIGDVRLADDVGIWPLVVIRGDVNYVAIGARTNIQDGSVLHVTHKSSSNPHGNPLIIGEDVTVGHKVMLHGCTIGNRVLVGMGSIVLDGAIIEDDVMIGAGSLVPQHKRLESGYLYLGSPVKQIRPLSDAERSGLQYSANNYVKWKDDYLSQDNHIQP	not soluble
MNSEQADILDLLSGHTDDTTIERLAFECLLTNMTDDRVVSLMNILGWQGDFNCFAIGGVPSASLASTSLAIRKAVRDLGGEHVVIGTYGTFLLALACQMGAVTPEVTCTAVMPAFSEDEPLYLSPVRSGVAGASHALRETMFSLQAAPALSTPSRPLRADELLPERALLGDDYAREELYRNVYQVLRGENPDDPTYLTVSTFLKYGSSLENTAKELNVHPNTVRYRLKRAAETTGWDATDPRDAYVLTTALAIGRMRDR	soluble
MLNVEPSFAEELRSSGVSLSATYLGSVPVVESINVMVSEMRVQVVSECIQHVAATVGVTAAREINPVVSRPTLHGSMKKPR	not soluble
MSLDTDSGENNKDSSIPQGGVTVSPEVLAHRPLIEKYGKEYGIEDYVSYILAIMQVESGGTAEDVMQSSESLGLPPNSLSTEESIKQGVKYFSELLTSAEQQGVDIDSVIQSYNYGGGFLNYVRSHGKKYTYELAEQFSKEKSGGQKADYPNPIAIPVNGGWRYNYGNQFYVQLVSQYLTDTSPTEFDDETVQVIMDEALKYEGFPYVFGGASPTTSFDCSGLIQWVYDKAGISLPRVAQDQYDATQEISMEEAQAGDLIFFHSTYNAGTYVTHVAIYLEGNRFYHAGDPIGYGDLSSRYWQDHLIGARRVIHNEGHHHHHH	soluble
MSLIKTEFKGNNIPYEYAAGADVSDSINGNPIKSFPFEVIELPEGTKYLAWSLIDYDAIPVCGFAWIHWSVANVSVSGNSISIKADLSRTKGDYVQGKNSFTSGLLAEDFSEIENHYVGPTPPDQDHQYELTVYALDHSLNLKNGFYLNEFLKEVNQHKIDQTSINLIGRKEGGSHHHHHH	soluble
MAIAKTDVLKFTTEVQPIGKQQYMELSKDIFVFSYLCGGINFTDIANLTNENIQNGRLHYIRQKTKKPIKIGIPQEAMQIIEKYSKESKGYLFPILDSKIHKTALQKQNRIHKILGKVNKNLKLLAAQLGVEANLTTYVARHSFASVLKKSGVNIALISEALGHSDLATTQIYLDSFDNEQVDEAMRNLLEHHHHHH	not soluble
MTMKEVEITAESLAKLTPAKQPNDTTTRVNSLSYGLKGDHMIMSTDDDSMFLYDMNTGLRSRSVNSKKYGCSHVKFASDSMCALHGSTKVDNTIRYLSLTDNKYIRYFQGHDKLVTGINVSPMDDMFLSVAEDKTIRLWDLKTHNCIGLMNLSATPIATFDPEGLLFAAGLDNNIIKLYDLRSFDKGPFSSFGPLENEDNVEWTAMRFSPCGKYIMICTNSSQLLLVDAFTGLIKFTLEEHQNAQKIPLMASFTPESSHIMVGSSDGYIYFYDVETGEIALKTLAPNNQTCHIAEFSPQHFVAATADTKLTLWCASDELKAQAQQS	not soluble
MSLTILNHTLGFPRVGLRRELKKAQESYWAGNSTREELLAVGRELRARHWDQQKQAGIDLLPVGDFAWYDHVLTTSLLLGNVPARHQNKDGSVDIDTLFRIGRGRAPTGEPAAAAEMTKWFNTNYHYMVPEFVKGQQFKLTWTQLLDEVDEALALGHKVKPVLLGPVTWLWLGKVKGEQFDRLSLLNDILPVYQQVLAELAKRGIEWVQIDEPALVLELPQAWLDAYKPAYDALQGQVKLLLTTYFEGVTPNLDTITALPVQGLHVDLVHGKDDVAELHKRLPSDWLLSAGLINGRNVWRADLTEKYAQIKDIVGKRDLWVASSCSLLHSPIDLSVETRLDAEVKSWFAFALQKCHELALLRDAVNSGDTAALAEWSAPIQARRHSTRVHNPAVEKRLAAITAQDSQRANVYEVRAEAQRARFKLPAWPTTTIGSFPQTTEIRTLRLDFKKGNLDANNYRTGIAEHIKQAIVEQERLGLDVLVHGEAERNDMVEYFGEHLDGFVFTQNGWVQSYGSRCVKPPIVIGDISRPAPITVEWAKYAQSLTDKPVKGMLTGPVTILCWSFPREDVSRETIAKQIALALRDEVADLEAAGIGIIQIDEPALREGLPLRRSDWDAYLQWGVEAFRINAAVAKDDTQIHTHMCYCEFNDIMDSIAALDADVITIETSRSDMELLESFEEFDYPNEIGPGVYDIHSPNVPSVEWIEALLKKAAKRIPAERLWVNPDCGLKTRGWPETRAALANMVQAAQNLRRGEGHHHHHH	soluble
MGSDKIHHHHHHMRYRKLSDYLKERYGERVQRIVIHGGFSCPNRDGTKGKGGCIYCDATGSGFTTLMRLPIREQVMEMKKKYEKRGIKKFIAYFQSFSNTYAPVEMLRERYEEALVDDSIVQLSVSTRPDLVPERVLDLFEEFKKRVDVSVELGLQTANYRTLKKINRGHTLAEFVDAAVRVKKRGIELVVHVILNLPWDDMEDVVETAKILSALDVDGVKLHSLYVVEGTKLAEMYKKGEVKICSLEEYIDRAITFLEYLSPNVVIHRLVADPPRKGTIFGNWGKSKIEIINMIEEELERRDTYQGKKFDYLNR	not soluble
MGSDKIHHHHHHADKFVAKCPNEIFIGAILEANSINQDTYKFLKISMNPINMGYTIPIKSQTITPSYNNMMKAIHEALKTNDVLKSNYSFSFVIKKIKSYQELAVNWGQNINLQQLLGITPDYKPQKNIILIDINQSFFSIIMDMPESLSTDPQVLQQLDKLAFINSIQFGRKVILVIESNIDYDKLQEAIDNLLKSKEVSQKELAILANSNIRLMTIGNKEIKDINPDNPFTSILTYLSSTVTPDDFGGPISFSASNIKDNSVFVNYFNVQ	not soluble
SLAEPPAQDPAELAAAAESYLRQQLAALPGEPSITLDPLRTDRLDACEALTPFMPSGMRVRARMTVGLRCVAPRTWTVYAQATVSVPGQYYVAARQIAPGKTIEAADLTTRDGDLVALPPGVITDAAAILGMRPAHRIAAGQPIKGAGLRSAESVSRGQSVRITARGNGFVVSSEGQALDNAPPGATVQVRTASGQVVSGIVQAAGLVEIQL	not soluble
MSLAPAAVLELPSPTGLHPVGRRTLHLVDRHRPDPWVPAARGRELMVSVSYPARSSGARPAAYMTRSEAQRLLELKGLAGVVPAATVAGTRTHAQADAPPAPGRFPLVLLSPGFSVPRTTLTALAVDVAARGYVVAAVDHAYESVGTEFPGGRVPPCVACDRVGVDVDEATVVRGRAADLSFVIDELTGRRSTGALARLIDPGRIGVAGHSIGGAAALATMAADRRVRAGVNLDGGFFVPDAGHRIGGRPFMMVGAEAVHGPGNTAGDWAATYDRLHGWKRWLTVSGAGHFSFTDIPWLAEQLGLPDPQVPLPGERGWYITRDYVGAFFDLHLRGLPQPLLHGPTSSHPEVGFHRPEGHHHHHH	soluble
MQEKTMKQMQQEVDDYISQFKEGYFSPLAMLARLTEELGELAREVNHYYGEKSKKATEQEKTVEEELGDLLFVLICFANSLGIDLQAAHDRVMDKFRTRDRDRWTRKEEGS	not soluble
MGSDKIHHHHHHMDQSLFQNGNFQPLASRMRPQTLDEFVGQTHLLGKDKVLSNLIEHDEISSMIFWGPPGVGKTTLARIIARRTKAQFVTFSAVTSGIKEIKQVMKEAEQNRELGQKTIVFVDEIHRFNKAQQDAFLPYVERGSIILIGATTENPSFEVNAALLSRTRVFVLHGLTSAELVDLLQRALKDPRGYGLQKVKIGKKLLAQIADFANGDARIALNTLEMAVTNAETKGGVITVTQADVAQLLTKKALLYDKNGEEHYNLISALHKSMRNSDVDAAIYWLARMLEAGEDPLYVARRLVRFASEDIGMADSRALEITIAVYQACQFIGMPECTVHLTHAVTYLALAPKSNALYTAYEGAKKDATETLAEPVPLQIRNGVTDLMQDLGYGKDYQYAHNTKDKLTTMQTMPDNLIGKTYYHPTTQGSEAKVKERLEQIKAWHAQHPDPDSPKTKKKS	not soluble
MQDRQKAQDYRALLLADTPLIDVRAPIEFEQGAMPGAINLPLMMDDERAAVGTCYKRQGADAALALGHRLVCGDIRQQRLEAWKAAYQRFPNGYLCCARGGQRSHIVQRWLQETGIDCPLIEGGYKALRQTAIQATWQLAQKPILLIGGCTGSGKTQLVRQQPNGVDLEGLARHRGSSFGRTLNPQLSQASFENKLAVELLKINARQTLKRWVLEDEGRTIGANHLPECLRERMAQAPIAVVEDPFALRLERLREEYFIRMHHDFTHAYGDEAGWQAYSEYLHHGLFAIRRRLGLQRFAELTDTLDRALAEQLSSGSTDGHMAWLVPLLNEYYDPMYRYQLEKKAANIVFRGTWQDVANWLKAQ	not soluble
VRFVSELCALHGTDPVPMALIMEPVSKWSPSQVVDWMKGLDDCLQQYIKNFEREKISGDQLLRITHQELEDLGVSRIGHQELILEAVDLLCALNYGLETENLKTLSHKLNASAKNLQNFITGRRRSGHYDGRTSRKLPNDFLTSVVDLIGAAKSLLAWLDRSPFAAVTDYSVTRNNVIQLCLELTTIVQQDCTVYETENKILHVCKTLSGVCDHIISLSSDPLVSQSAHLEVIQLANIKPSEGLGMYIKSTYDGLHVITGTTENSPADRCKKIHAGDEVIQVNHQTVVGWQLKNLVNALREDPSGVILTLKKRPQSMLTSAPALLKNMRWKPLALQPLIPRSPTSSVATPSSTISTPTKRDSSALQDLYIPPPPAEPYIPRDEKGNLPCEDLRGHMVGKPVHKGSESPNSFLDQEYRKRFNIVEEDTVLYCYEYEKGRSSSQGRRESTPTYGKLRPISMPVEYNWVGDYEDPNKMKRDSRRENSLLRYMSNEKIAQEEYMFQRNSKKDTGKKSKKKGDKSNSPTHYSLLPSLQMDALRQDIMGTPVPETTLYHTFQQSSLQHKSKKKNKGPIAGKSKRRISCKDLGRGDCEGWLWKKKDAKSYFSQKWKKYWFVLKDASLYWYINEEDEKAEGFISLPEFKIDRASECRKKYAFKACHPKIKSFYFAAEHLDDMNRWLNRINMLTAGYAERERIKQEQDYWSESDKEEADTPSTPKQDSPPPPYDTYPRPPSMSCASPYVEAKHSRLSSTETSQSQSSHEEFRQEVTGSSAVSPIRKTASQRRSWQDLIETPLTSSGLHYLQTLPLEDSVFSDSAAISPEHRRQSTLPTQKCHLQDHYGPYPLAESERMQVLNGNGGKPRSFTLPRDSGFNHCCLMLQLVPVTHRMTCNPQRWRKRRRRRRRKGRQQGKT	soluble
MLKYEHIAKQLNAFIHQSNFKPGDKLPNVTQLKERYQVSKSTIIKALGLLEQDGLIYQAQGSGIYVRNIADANRINVFKTNGFSKSLGEHRMTSKVLVFKEMATPPKSVQDELQLNADDTVYYLERLRFVDDDVLCIEYSYYHKEIVKYLNDDIAKGSIFDYLESNMKLRIGFSDIFFNVDKLTSSEASLLQLSTGEPCLRYHQTFYTMTGKPFDSSDIVFHYRHAQFYIPSKK	soluble
GPGSMLLPRTDSHDPDANDADPRSSSSAPSVSAPALSFTTTADALASTPLSNTNPCAAYTWLPDTRSTAPPDATTRALAYNAYSPPSTAASSATPPPTSSSTAPSTTTVRPPVITVTRATPDTTSTDRTSRRPDSTSTGAYGEDCEPGRYTSGVDLAATSRESVTVSTDPAGNVPVSTSAPFSAST	soluble
MSLENTTQIPESELHNLGLTDEEIQEFNQYLIDESLFQETVETSPIVVSDNEDAAQDPGFGLFTTNPVKHTDEHIGALYFSDLPGISNLTCTANYIGGKFWTTAHHCVEGRSRFVGFIEQSDGQYAGIEHVYTKSSDYDIALIKVGSGIDAEQFSLTRSRPAVGKMLEVVGFAVVNPFSSRATMEVTNSNTVANYPMSNLYYKDVFSAKPAGSFPYVISGGDSGAAVWSGETMYGIASGSNGSTKNLAANVGPHVSWIEQTMQNNSNSSPYEILQAFRGGLATSYPKYNQIRDLVDSSEGHHHHHH	soluble

Reference: the DeepSol protein solubility set
